The source of these data is publication PMC12368724 (2025).

This test deals with GH1 β-glucosidase from Spodoptera frugiperda (Sfβgly), wild-type (Spodoptera frugiperda). The experiment in a line: P100 buffer, pH 6, 5°C, protein sample 3 (SEC).

B1: GH1 β-glucosidase from Spodoptera frugiperda (Sfβgly), wild-type (enzyme)
chain: QQRRFPDDFLFGTATASYQIEGAWDEDGKGENIWDYMVHNTPEVIRDLSNGDIAADSYHNYKRDVEMMRELGLDAYRFSLSWARILPTGMANEVNPAGIAFYNNYIDEMLKYNITPLITLYHWDLPQKLQELGGFANPLISDWFEDYARVVFENFGDRVKMFITFNEPREICFEGYGSATKAPILNATAMGAYLCAKNLVTAHAKAYYLYDREFRPVQGGQCGITISVNWFGPATPTPEDEMAAELRRQGEWGIYAHPIFSAEGGFPKELSDKIAEKSAQQGYPWSRLPEFTEEEKAFVRGTSDFFGVNHYTAFLVSATERKGPYPVPSLLDDVDTGSWADDSWLKSASAWLTLAPNSIHTALTHLNNLYNKPVFYITENGWSTDESRENSLIDDDRIQYYRASMESLLNCLDDGINLKGYMAWSLMDNFEWMEGYIERFGLYEVDFSDPARTRTPRKAAFVYKHIIKHRVVDYEYEPETMVMTIDEGH
modifications: Monomer given, self-associates to a C2 homodimer. Limits by convention from the 5CG0 entity; paper numbering = entity + 20 (precursor numbering) Monomer given, self-associates to a C2 homodimer. Limits by convention from the 5CG0 entity; paper numbering = entity + 20 (precursor numbering)
B1: the Kd was found to be 5.5 µM.

What is called Kd is the equilibrium constant for the complex coming apart. Low readings indicate a tighter complex, high ones a looser complex.
